Three substances from patent US12458691 can be followed below.

Assay [1] addresses FP8-TTHc (MBS activation, 1:1 molar ratio) (HIV-1 strain BG505). The experiment in a line: Octet, purified conjugate. (BLI is a label-free optical method that tracks binding on a fibre tip over time.)
Assay [2] has as its target FP8-TTHc (sulfo-SIAB activation, 0.5:1 molar ratio) (HIV-1 strain BG505). The experiment in a line: Octet, purified conjugate.
Assay [3] addresses FP8-TTHc (sulfo-SIAB activation, 1:1 molar ratio) (HIV-1 strain BG505). Description: Octet, purified conjugate.
For assay [4], the target named is FP8-1Y12 (HIV-1 strain BG505). Description: apparent KD; Octet BLI, antibody IgG on sensor (method per paragraph 361).
In assay [5] the target is FP8-3HSH (HIV-1 strain BG505). The assay is described as above.
Assay [6] has as its target FP8-1Y12 (HIV-1 strain BG505). The experiment in a line: BLI (Octet), IgG on the sensor, apparent KD with IgG avidity.
In assay [7] the target is FP8-3HSH (HIV-1 strain BG505). The description is as above.
The target in assay [8] is FP-LS (Aquifex aeolicus (strain VF5)) (UniProt O66529). Description: apparent KD (table head 'Apparent KD value (nM)'); Octet BLI with IgG on the sensor per paragraph 361.
The target in assay [9] is FP8-KLH (HIV-1 strain BG505). The experiment in a line: BLI (Octet), IgG on the sensor, apparent KD with IgG avidity.
Assay [10] deals with His-tagged fusion peptide (residue 512-521) (HIV-1 strain BG505). Description: SPR, Fab over His-tagged fusion peptide on Ni-NTA chip, 1:1 fit. For orientation: Surface plasmon resonance follows binding to a sensor surface in real time, without labels.

A value given as a limit tells only on which side of the number the result lay.

Chain of FP8-KLH (HIV-1 strain BG505) (Q10583 17-3414): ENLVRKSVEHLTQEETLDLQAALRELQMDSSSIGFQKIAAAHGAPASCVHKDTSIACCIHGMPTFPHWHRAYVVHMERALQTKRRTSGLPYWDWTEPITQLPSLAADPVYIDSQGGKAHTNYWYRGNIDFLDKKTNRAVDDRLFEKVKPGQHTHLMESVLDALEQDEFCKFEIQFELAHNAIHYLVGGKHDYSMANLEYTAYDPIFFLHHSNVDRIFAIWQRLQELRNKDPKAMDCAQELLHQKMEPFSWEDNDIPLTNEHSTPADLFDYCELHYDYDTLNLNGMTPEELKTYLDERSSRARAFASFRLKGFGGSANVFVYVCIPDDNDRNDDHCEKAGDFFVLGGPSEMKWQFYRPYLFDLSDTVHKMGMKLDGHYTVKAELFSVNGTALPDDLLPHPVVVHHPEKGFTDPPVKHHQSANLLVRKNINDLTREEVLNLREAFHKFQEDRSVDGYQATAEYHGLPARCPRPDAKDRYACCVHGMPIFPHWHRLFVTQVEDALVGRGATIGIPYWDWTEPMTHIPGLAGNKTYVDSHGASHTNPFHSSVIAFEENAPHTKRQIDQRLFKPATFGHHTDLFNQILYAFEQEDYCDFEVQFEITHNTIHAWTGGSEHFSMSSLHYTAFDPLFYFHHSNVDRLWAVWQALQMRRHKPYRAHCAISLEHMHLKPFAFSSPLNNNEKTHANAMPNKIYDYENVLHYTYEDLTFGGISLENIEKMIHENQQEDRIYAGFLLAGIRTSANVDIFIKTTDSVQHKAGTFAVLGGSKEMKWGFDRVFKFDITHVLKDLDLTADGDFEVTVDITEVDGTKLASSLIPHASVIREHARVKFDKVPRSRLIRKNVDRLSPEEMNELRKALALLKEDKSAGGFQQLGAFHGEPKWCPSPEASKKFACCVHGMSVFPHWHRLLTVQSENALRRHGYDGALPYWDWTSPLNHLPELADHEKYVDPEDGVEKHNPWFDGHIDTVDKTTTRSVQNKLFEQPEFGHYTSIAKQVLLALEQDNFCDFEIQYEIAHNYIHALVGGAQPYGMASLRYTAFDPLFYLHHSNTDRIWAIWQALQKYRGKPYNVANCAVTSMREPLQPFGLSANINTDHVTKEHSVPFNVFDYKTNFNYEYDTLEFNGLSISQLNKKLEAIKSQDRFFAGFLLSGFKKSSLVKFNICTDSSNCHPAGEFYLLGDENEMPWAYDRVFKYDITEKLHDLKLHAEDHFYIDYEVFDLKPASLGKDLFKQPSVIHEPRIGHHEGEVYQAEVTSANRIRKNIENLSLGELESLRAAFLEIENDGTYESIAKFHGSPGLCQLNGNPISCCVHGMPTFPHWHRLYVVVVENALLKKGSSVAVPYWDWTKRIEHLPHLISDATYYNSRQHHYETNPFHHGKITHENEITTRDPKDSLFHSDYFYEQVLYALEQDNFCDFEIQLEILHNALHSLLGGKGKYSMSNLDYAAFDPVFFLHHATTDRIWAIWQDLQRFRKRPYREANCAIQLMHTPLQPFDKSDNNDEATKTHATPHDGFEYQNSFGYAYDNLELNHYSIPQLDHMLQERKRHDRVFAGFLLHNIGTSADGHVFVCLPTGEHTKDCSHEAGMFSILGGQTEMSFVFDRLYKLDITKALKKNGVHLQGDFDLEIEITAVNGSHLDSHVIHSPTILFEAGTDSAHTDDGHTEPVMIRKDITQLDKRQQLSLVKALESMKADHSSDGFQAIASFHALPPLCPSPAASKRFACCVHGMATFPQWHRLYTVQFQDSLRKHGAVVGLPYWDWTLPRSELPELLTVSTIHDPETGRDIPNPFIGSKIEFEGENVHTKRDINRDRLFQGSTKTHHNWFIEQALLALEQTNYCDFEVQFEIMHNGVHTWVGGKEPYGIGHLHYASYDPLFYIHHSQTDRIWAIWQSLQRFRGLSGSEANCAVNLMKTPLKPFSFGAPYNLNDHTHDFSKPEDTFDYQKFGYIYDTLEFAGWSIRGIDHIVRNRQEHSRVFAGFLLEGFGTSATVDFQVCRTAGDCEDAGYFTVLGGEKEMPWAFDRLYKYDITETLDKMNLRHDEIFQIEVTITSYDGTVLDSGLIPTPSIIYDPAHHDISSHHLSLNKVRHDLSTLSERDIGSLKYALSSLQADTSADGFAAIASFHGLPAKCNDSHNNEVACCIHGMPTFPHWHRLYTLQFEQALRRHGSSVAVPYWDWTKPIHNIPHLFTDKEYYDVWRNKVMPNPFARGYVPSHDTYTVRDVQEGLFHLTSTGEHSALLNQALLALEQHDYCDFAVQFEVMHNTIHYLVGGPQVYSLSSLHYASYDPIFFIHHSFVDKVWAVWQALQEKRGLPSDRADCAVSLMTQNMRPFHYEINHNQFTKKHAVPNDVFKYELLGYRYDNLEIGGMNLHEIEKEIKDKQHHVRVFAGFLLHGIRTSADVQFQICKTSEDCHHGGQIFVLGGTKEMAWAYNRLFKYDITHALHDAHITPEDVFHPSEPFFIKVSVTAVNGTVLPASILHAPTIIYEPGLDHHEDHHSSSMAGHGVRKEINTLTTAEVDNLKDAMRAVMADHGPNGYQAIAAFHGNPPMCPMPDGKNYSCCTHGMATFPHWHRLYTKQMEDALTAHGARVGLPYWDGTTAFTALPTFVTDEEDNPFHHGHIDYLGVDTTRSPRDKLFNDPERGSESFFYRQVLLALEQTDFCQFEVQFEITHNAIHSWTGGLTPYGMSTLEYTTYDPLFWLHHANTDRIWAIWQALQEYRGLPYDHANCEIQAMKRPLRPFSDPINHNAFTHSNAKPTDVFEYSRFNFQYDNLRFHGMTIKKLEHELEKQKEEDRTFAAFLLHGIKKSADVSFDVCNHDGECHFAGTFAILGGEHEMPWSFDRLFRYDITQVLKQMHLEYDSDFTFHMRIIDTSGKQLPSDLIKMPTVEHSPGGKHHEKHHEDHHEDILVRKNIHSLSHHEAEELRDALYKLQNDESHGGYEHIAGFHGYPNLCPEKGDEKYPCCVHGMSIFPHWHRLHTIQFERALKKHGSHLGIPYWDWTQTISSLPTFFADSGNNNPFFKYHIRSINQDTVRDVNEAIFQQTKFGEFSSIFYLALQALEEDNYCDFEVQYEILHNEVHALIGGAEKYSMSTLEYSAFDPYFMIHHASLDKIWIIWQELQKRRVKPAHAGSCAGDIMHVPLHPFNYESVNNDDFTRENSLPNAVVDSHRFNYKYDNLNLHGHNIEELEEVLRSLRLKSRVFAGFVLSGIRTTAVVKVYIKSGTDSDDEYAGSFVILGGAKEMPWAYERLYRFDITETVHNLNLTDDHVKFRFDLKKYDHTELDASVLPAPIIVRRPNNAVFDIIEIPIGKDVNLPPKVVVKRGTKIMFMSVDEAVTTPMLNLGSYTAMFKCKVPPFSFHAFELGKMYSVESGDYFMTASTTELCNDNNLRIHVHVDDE
Chain of FP-LS (Aquifex aeolicus (strain VF5)) (O66529 other isoform, or with tags, fused parts or gaps): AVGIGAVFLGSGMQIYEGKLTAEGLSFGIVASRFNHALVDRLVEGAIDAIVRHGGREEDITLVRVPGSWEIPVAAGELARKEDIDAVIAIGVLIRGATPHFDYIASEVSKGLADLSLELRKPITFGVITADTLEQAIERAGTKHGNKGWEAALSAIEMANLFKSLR
Chain of FP8-TTHc (sulfo-SIAB activation, 0.5:1 molar ratio) (HIV-1 strain BG505) (P04958 865-1315, tags left off): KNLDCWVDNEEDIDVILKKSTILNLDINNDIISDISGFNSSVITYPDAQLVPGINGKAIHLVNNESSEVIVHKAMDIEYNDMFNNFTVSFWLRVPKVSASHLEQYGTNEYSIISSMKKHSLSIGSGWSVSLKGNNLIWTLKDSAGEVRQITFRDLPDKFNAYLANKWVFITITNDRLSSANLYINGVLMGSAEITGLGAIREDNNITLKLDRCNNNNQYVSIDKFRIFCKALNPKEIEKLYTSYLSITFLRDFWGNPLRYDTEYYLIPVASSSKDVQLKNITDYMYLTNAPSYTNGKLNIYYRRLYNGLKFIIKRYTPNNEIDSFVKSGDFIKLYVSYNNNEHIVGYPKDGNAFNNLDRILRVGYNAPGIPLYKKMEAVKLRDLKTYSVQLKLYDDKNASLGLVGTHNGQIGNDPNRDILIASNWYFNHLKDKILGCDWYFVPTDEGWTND
Chain of FP8-TTHc (MBS activation, 1:1 molar ratio) (HIV-1 strain BG505) (P04958 865-1315, tags left off): as above
Chain of FP8-TTHc (sulfo-SIAB activation, 1:1 molar ratio) (HIV-1 strain BG505) (P04958 865-1315, tags left off): as above

With PGT151 (antibody), the Kd in [1] was 2.3 nM; in [2], 3.6 nM; in assay [3] it was 2.8 nM; in assay [4] it was less than 0.001 nM; in assay [5] it was less than 0.001 nM; in assay [6], less than 0.001 nM. The Kd in [7] was 47.2 nM; in assay [8], less than 0.001 nM.
ACS202 (antibody): the Kd in assay [9] is less than 0.001 nM.
Regarding VRC34.01 Fab, in assay [10], the Kd stood at 6.17 nM; the koff – broadly, the first-order rate constant of dissociation – amounted to 0.00924 s⁻¹; the kon (commonly the rate constant with which the complex forms) was 1.5e+06 M⁻¹ s⁻¹.
